PMC2901993 (Biochemical and biophysical research communications, 2010)

These binders were tested against translin (TB-RBP) (Mus musculus, UniProt Q62348 1-228) (assay: fluorescence polarization).
Chain of translin (TB-RBP) (Q62348 whole entry): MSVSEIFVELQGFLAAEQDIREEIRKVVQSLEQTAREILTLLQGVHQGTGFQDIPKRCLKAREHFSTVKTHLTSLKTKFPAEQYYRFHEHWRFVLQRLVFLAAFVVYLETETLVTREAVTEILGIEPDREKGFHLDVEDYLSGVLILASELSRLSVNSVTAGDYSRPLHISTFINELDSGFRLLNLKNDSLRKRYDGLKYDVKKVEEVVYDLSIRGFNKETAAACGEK

| Binder | Kd [nM] |
| --- | --- |
| UCUGAGCCCUGAGCUGCCAAGGAGCCACGAGAUCUGAGU (ssRNA) [PRM-2] | 200 |
| TCTGAGCCCTGAGCTGCCAAGGAGCCACGAGATCTGAGT (ssDNA) [dPRM-2] | 10000 |
| UCUGAGCCCUCACCUGCCAAGGAGCCACGAGAUCUGAGU (ssRNA) [PRM-2 Variant 1] | 1000 |
| UCUGAGCCCUGAGCUGCCAAGGAGCCACCACAUCUGAGU (ssRNA) [PRM-2 Variant 2] | 200 |
| UCUGAGCCCUCACCUGCCAAGGAGCCACCACAUCUGAGU (ssRNA) [PRM-2 Variant 3] | 300 |
| UCUGAGCCCUGAGCUGCCAAGGAGCCACGA (ssRNA) [PRM-2(1-30)] | 200 |
| AGAGGAGGAGGAGGAGGAGGAGGAG (ssRNA) [rGAG] | 500 |

What follows are binders tested against translin (in translin-trax complex);trax (translin-associated factor X) (Mus musculus;Mus musculus, UniProt Q62348;Q9QZE7 1-228;1-290, |) (assay: fluorescence polarization).
Chain of translin (in translin-trax complex);trax (translin-associated factor X) (Q62348 whole entry, chain 1 of 2): as the sequence (Q62348 whole entry) above
Chain of translin (in translin-trax complex);trax (translin-associated factor X) (Q9QZE7 whole entry, chain 2 of 2): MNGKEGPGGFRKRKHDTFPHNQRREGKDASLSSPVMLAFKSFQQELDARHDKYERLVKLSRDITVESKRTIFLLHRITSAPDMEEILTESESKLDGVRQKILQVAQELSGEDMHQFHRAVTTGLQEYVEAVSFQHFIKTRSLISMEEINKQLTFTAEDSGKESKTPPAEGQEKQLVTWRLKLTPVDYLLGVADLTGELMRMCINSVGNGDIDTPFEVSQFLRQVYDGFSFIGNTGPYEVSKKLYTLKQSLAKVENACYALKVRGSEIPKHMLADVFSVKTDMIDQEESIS

| Binder | Kd [nM] |
| --- | --- |
| UCUGAGCCCUGAGCUGCCAAGGAGCCACGAGAUCUGAGU (ssRNA) [PRM-2] | 40000 |
| TCTGAGCCCTGAGCTGCCAAGGAGCCACGAGATCTGAGT (ssDNA) [dPRM-2] | 4000 |
